The source of these data is patent US10501734B2, “Compositions and methods of use thereof for making polypeptides with many instances of nonstandard amino acids” (Yale University, priority 2014, dated 2019).

Substitutions are numbered along the chain they refer to. Names and notes keep the numbering of the source. “Also recorded” adds a separate entry of the source. Where two headings read alike, the source gives them in different places.

The term Km denotes the substrate concentration at which the rate is half of its maximum.

A short description of data set [1]: ATP-PPi exchange assay (amino acid activation). As to conditions: for Fold change: relative to progenitor pAcFRS. In kind it is biochemical. On the procedure: A 25 μl ATP-PPi exchange reaction contained the following components: 100 mM HEPES-KOH (pH 7.5), 30 mM KCl, 10 mM MgCl2, 2 mM DTT, 2 mM KF, 2 mM NaPPi, 5 mM ATP, […], 2 μCi/μl of […] (PerkinElmer) and varied concentrations of amino acids (0.25, 0.5, 1.25, 2.5, 5, 10, and 20 mM, respectively). The reactions were incubated at 37° C. Time points were taken at 2 minutes, 5 minutes and 10 minutes by plotting 1 μl aliquots from the reaction immediately to the PEI-cellulose plates (Merck). For each reaction, 1 μl of blank reaction mixture containing no enzymes was set as background. The reaction mixtures were separated on the plates in 1 M urea and 1 M monopotassium phosphate. The plates were then scanned in a Molecular Dynamics Storm 860 phosphorimager (Amersham Biosciences). The ratio of ATP to PPi was determined to monitor reaction progress. The kinetic constants were derived from plotting initial velocity of a series of reactions that contained varied concentrations of amino acids. The data were analyzed by GraFit 5.0 (Erithacus Software).

Data set [2] relates to tRNA. Description: Aminoacylation assay (tRNA charging). As to conditions: for Fold change: relative to progenitor pAcFRS. In kind it is biochemical. On the procedure: Template plasmid containing tRNA gene was purified with the plasmid maxi kit (Qiagen), and 100 μg of plasmid was digested with BstNI (New England Biolabs). The BstNI digested template DNA was purified by phenol chloroform extraction, followed by ethanol precipitation and resolved in double distilled water. A His-tagged T7 RNA polymerase was purified over column of Ni-NTA resin according to manufacturer's instructions (Qiagen). The transcription reaction [40 mM Tris (pH 8); 4 mM each of UTP, CTP, GTP, and ATP at pH 7.0; 22 mM MgCl2; 2 mM spermidine; 10 mM DTT; 6 μg pyrophosphatase (Roche Applied Science); 60 μg/mL BstNI digested DNA template, approximately 0.2 mg/ml T7 RNA polymerase] was performed in 10 ml reaction volumes for overnight at 37° C. The tRNA was purified on 12% denaturing polyacrylamide gel containing 8 M urea and TBE buffer (90 mM Tris, 90 mM boric acid, 2 mM EDTA). UV shadowing illuminates the pure tRNA band, which is excised and extracted three times with 1M sodium acetate pH 5.3 at 4° C. The tRNA extractions were then ethanol precipitated, dissolved in RNase-free distilled water, pooled, and finally desalted using a Biospin 30 column (BioRad). The ratio of aminoacylated tRNA to total tRNA was determined to monitor reaction progress.
The tRNA was refolded by heating to 100° C. for 5 min and slow cooling to room temperature. At 65° C., MgC12, was added to a final concentration of 10 mM to aid folding. A His-tagged CCA adding enzyme was purified over column of Ni-NTA resin according to manufacturer's instructions (Qiagen). 16 μM folded tRNA in 50 mM Tris (pH 8.0), 20 mM MgCl2, 5 mM DTT and 50 μM NaPPi was incubated at room temperature for 1 hour with approximately 0.2 mg/ml CCA-adding enzyme and 1.6 μCi/μl of [α-32P]-labeled ATP (PerkinElmer). The sample was phenol/chloroform extracted and then passed over a Bio-spin 30 column (Bio-Rad) to remove excess ATP.
A 20 μl aminoacylation reaction contained the following components: 50 mM HEPES-KOH (pH 7.2), 25 mM KCl, 10 mM MgCl2, 5 mM DTT, 10 mM ATP, 25 μg/ml pyrophosphatase (Roche Applied Science), 2 mM amino acids. All plateau tRNA aminoacylation levels were determined at 37° C. according to the reactions conditions described above with 500 nM enzyme, 5 μM unlabeled tRNA plus 100 nM 32P-labeled tRNA. Time points were taken at 5 minutes, 20 minutes and 60 minutes by removing 2 μl aliquots from the reaction and immediately quenching the reaction into an ice-cold 3 μl quench solution [0.66 μg/μl nuclease P1 (Sigma) in 100 mM sodium citrate (pH 5.0)]. For each reaction, 2 μl of blank reaction mixture containing no enzymes was added to the quench solution as the start time point. The nuclease P1 mixture was then incubated at room temperature for 30 min and 1 μl aliquots were spotted on PEI-cellulose plates (Merck) and developed in running buffer containing 5% acetic acid and 100 mM ammonium acetate. Radioactive spots for AMP and AA-AMP (representing free tRNA and aminoacyl-tRNA, respectively) were separated and then visualized and quantified by phosphor imaging by a Molecular Dynamics Storm 860 phosphorimager (Amersham Biosciences). The ratio of aminoacylated tRNA to total tRNA was determined to monitor reaction progress.

Data set [3] deals with GFP(3TAG). The experiment in a line: nsAA library screening, GFP(3TAG) fluorescence in 384 well plates. The data set is classed as cell-based, E. coli. As to conditions: GFP(3TAG) production in the presence of pAcF, pAzF and 236 other nsAAs. On the procedure: (§1) Liquid cell cultures of strains harboring chromosomally integrated OTSs and GFP reporter plasmids were inoculated from frozen stocks and grown to confluence overnight. Cultures were then inoculated at 1:20 dilution in LBmin media supplemented with 30 μg/ml kanamycin. Strains were inoculated by addition of 1:20 confluent cell culture (grown overnight) and allowed to grow at 34° C. to an OD600 of 0.5-0.8 in a shaking plate incubator at 650 r.p.m (˜3 h). AARS expression was then induced by the addition of 0.2% arabinose, GFP expression was induced by the addition of 60 ng/ul anhydrotetracycline, and the appropriate nsAA was added to a concentration of 1 mM. Cells were incubated at 34° C. for an additional 16 h. Liquid cell cultures of strains harboring plasmid-based OTSs and GFP or ELP-GFP reporter plasmids were inoculated from frozen stocks and grown to confluence overnight. Cultures were then inoculated at 1:20 dilution in 2×YT media supplemented with 30 μg/ml kanamycin and 20 μg/ml chloramphenicol. […] Cells were allowed to grow at 34° C. to an OD600 of 0.5-0.8 in a shaking plate incubator at 650 r.p.m (˜3 h), reporter protein expression was then induced by the addition of 60 ng/ul anhydrotetracycline, and cells were incubated at 34° C. for an additional 16 h.
For 384 well plate-based assays, fluorescence and OD600 were directly measured following expression. For 96 well plate-based assays, cells were centrifuged at 4,000 g for 4 min. Supernatant medium was removed and cells were resuspended in PBS. This process was repeated twice with PBS. GFP fluorescence was measured on a Biotek spectrophotometric plate reader using excitation and emission wavelengths of 395 and 509 nm, respectively). Fluorescence signals were normalized by dividing the fluorescence counts by the OD600 reading. The nsAAs used in this study were purchased from Sigma-Aldrich (St. Louis, Mo.), Chemlmpex (Wood Dale, Ill.), and Bachem (Torrance, Calif.). Solutions of nsAAs (50 mM) were made in water or 50 mM NaOH; these stock solutions were diluted 50- or 100-fold (to 1 mM final concentration) into medium used for bacterial growth. […]

The test system of data set [4] is GFP(3TAG). In kind it is cell-based, E. coli. As to conditions: chromosomally integrated AARS. On the procedure:
as §1
For 384 well plate-based assays, fluorescence and OD600 were directly measured following expression. For 96 well plate-based assays, cells were centrifuged at 4,000 g for 4 min. Supernatant medium was removed and cells were resuspended in PBS. This process was repeated twice with PBS. GFP fluorescence was measured on a Biotek spectrophotometric plate reader using excitation and emission wavelengths of 395 and 509 nm, respectively). Fluorescence signals were normalized by dividing the fluorescence counts by the OD600 reading. The nsAAs used in this study were purchased from Sigma-Aldrich (St. Louis, Mo.), Chemlmpex (Wood Dale, Ill.), and Bachem (Torrance, Calif.). Solutions of nsAAs (50 mM) were made in water or 50 mM NaOH; these stock solutions were diluted 50- or 100-fold (to 1 mM final concentration) into medium used for bacterial growth.

B1: pAcFRS.1.t2: pAcFRS variant A167D, R257C, F261E, SEQ ID NO: 6 (protein)
chain: MDEFEMIKRNTSEIISEEELREVLKKDEKSALIGFEPSGKIHLGHYLQIKKMIDLQNAGFDIIILLADLHAYLNQKGELDEIRKIGDYNKKVFEAMGLKAKYVYGSEFQLDKDYTLNVYRLALKTTLKRARRSMELIAREDENPKVAEVIYPIMQVNGCHYRGVDVDVGGMEQRKIHMLARELLPKKVVCIHNPVLTGLDGEGKMSSSKGNFIAVDDSPEEIRAKIKKAYCPAGVVEGNPIMEIAKYFLEYPLTIKCPEKEGGDLTVNSYEELESLFKNKELHPMRLKNAVAEELIKILEPIRKRL
Consider B1, for which, in data set [1] (nsAA pAcF), the Km was found to be 1.69 ± 0.44 mM, the kcat is 6.30 ± 0.46 ×10^−2 s^−1 and the Fold change was 5.47. Further, in data set [2] (nsAA pAcF), the Km was found to be 27 ± 3 µM, the kcat is 1.03 ± 0.06 ×10^−3 s^−1 and the Fold change worked out at 5.22. Besides, the “nsAA specificity (polyspecificity)” value in data set [3] is listed as “polyspecifity for at least pAcF, pAzF, StyA, 4IF, 4BrF, 4ClF, 4MeF, 4Cf3F, MeY, 4NO2F, 4BuF, BuY, 2NaA, PheF”. For the same molecule, the “higher GFP(3TAG) production compared with the progenitor enzyme” value in data set [4] (pAcF) is roughly 15 fold.

B2: pAzFRS.2: pAcFRS variant E107T, F108Y, Q109M, SEQ ID NO: 13 (protein)
chain: B1 chain with E107T, F108Y, Q109M, D167A, C257R, E261F
Consider B2, for which, in data set [1] (nsAA pAzF), the Km was found to be 1.25 ± 0.11 mM, the kcat is given as 4.13 ± 0.86 ×10^−2 s^−1 and the Fold change turned out to be 2.26. In data set [2] (nsAA pAzF), the Km turned out to be 32 ± 11 µM, the kcat is recorded as 0.73 ± 0.06 ×10^−3 s^−1 and the Fold change was found to be 3.67. In data set [3], the “nsAA specificity (polyspecificity)” value is reported as “polyspecific for at least pAcF, pAzF, StyA, 4IF, 4BrF, 4ClF, 4MeF, 4Cf3F, MeY, 4NO2F, 4BuF, BuY, 2NaA, PheF”. In addition, the “higher GFP(3TAG) production compared with the progenitor enzyme” value in data set [4] (pAzF) was roughly 12 fold.

B3: pAzFRS.1: pAcFRS variant D158V, I159M, L162D, A167Y, SEQ ID NO: 10 (protein)
chain: B1 chain with G158V, C159M, R162D, D167Y, C257R, E261F
On to B3, for which, in data set [1] (nsAA pAzF), the Km is 1.18 ± 0.21 mM, the kcat is on record as 4.61 ± 0.18 ×10^−2 s^−1 and the Fold change is recorded as 2.68. Also, in data set [2] (nsAA pAzF), the Km is 38 ± 5 µM, the kcat is 0.46 ± 0.18 ×10^−3 s^−1 and the Fold change is reported as 1.48. Also, the “nsAA specificity (polyspecificity)” value in data set [3] is “specific for pAzF; also recorded: exceptional specificity toward pAzF with almost complete exclusion of any other nsAA; also recorded: both more efficient and more specific for pAzF than previously reported pAzFRSs”. The “higher GFP(3TAG) production compared with the progenitor enzyme” value in data set [4] (pAzF) is given as roughly 3.5 fold.

B4: pAcFRS.2: pAcFRS variant L65V, A167D, SEQ ID NO: 7 (protein)
chain: B1 chain with L65V, C257R, E261F
In the case of B4, the Km in data set [1] (nsAA pAcF) came to 3.13 ± 1.73 mM; in data set [1] (nsAA pAzF) it was 6.4 ± 0.78 mM; in data set [2] (nsAA pAcF), 31 ± 7 µM; in data set [2] (nsAA pAzF), 33 ± 8 µM. Further, the kcat in data set [1] (nsAA pAcF) is given as 5.28 ± 0.79 ×10^−2 s^−1; in data set [1] (nsAA pAzF), 4.08 ± 0.20 ×10^−2 s^−1; in data set [2] (nsAA pAcF), 0.58 ± 0.09 ×10^−3 s^−1; in data set [2] (nsAA pAzF) it was 0.18 ± 0.02 ×10^−3 s^−1. For the same molecule, the Fold change in data set [1] (nsAA pAcF) stood at 2.48; in data set [1] (nsAA pAzF), 0.44; in data set [2] (nsAA pAcF), 2.56; in data set [2] (nsAA pAzF) it was 0.88. Further, in data set [3], the “nsAA specificity (polyspecificity)” value is given as “polyspecifity for at least pAcF, pAzF, StyA, 4IF, 4BrF, 4ClF, 4MeF, 4Cf3F, MeY, 4NO2F, 4BuF, BuY, 2NaA, PheF”. Further, the “selectivity toward pAcF over pAzF” value in data set [4] (GFP(3TAG) expression) is given as “increase in selectivity”.
